Consider two molecules from patent US20110142851A1 (EMERGENT PRODUCT DEVELOPMENT SEATTLE, published 2011).

Sequences and labels used below:
B1: recombinant human soluble IL6 receptor (receptor)
chain: LAPRRCPAQEVARGVLTSLPGDSVTLTCPGVEPEDNATVHWVLRKPAAGSHPSRWAGMGRRLLLRSVQLHDSGNYSCYRAGRPAGTVHLLVDVPPEEPQLSCFRKSPLSNVVCEWGPRSTPSLTTKAVLLVRKFQNSPAEDFQEPCQYSQESQKFSCQLAVPEGDSSFYIVSMCVASSVGSKFSKTQTFQGCGILQPDPPANITVTAVARNPRWLSVTWQDPHSWNSSFYRLRFELRYRAERSKTFTTWMVKDLQHHCVIHDAWSGLRHVVQLRAQEEFGQGEWSEWSPEAMGTPWTESRSPPAENEVSTPMQALTTNKDDDNILFRDSANATSLPVQD
notes: also called sIL6R; sIL-6R

One assay addresses T1, TRU(XT6)-1042.
T1 construct: Xceptor, TNFRSF1B ectodomain N-terminal, anti-IL6xR domain C-terminal
The assay is described as follows: ELISA, Xceptor captured by anti-human Fc.

The target in assay [1] is B1. The assay is described as follows: ELISA, Xceptor captured by anti-human Fc.
The next assay has as its target T2, hu HIL6 AFH monomer (human).
T2 chain: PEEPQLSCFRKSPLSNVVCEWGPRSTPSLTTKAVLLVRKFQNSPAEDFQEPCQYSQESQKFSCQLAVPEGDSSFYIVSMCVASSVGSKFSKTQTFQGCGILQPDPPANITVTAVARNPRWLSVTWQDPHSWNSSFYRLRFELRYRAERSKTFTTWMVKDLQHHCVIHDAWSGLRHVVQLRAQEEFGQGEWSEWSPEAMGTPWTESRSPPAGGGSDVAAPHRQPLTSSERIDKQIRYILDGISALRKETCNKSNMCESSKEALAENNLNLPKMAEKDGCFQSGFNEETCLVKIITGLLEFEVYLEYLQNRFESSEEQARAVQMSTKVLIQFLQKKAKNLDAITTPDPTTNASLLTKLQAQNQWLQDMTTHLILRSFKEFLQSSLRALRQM
Kind of assay: SPR Biacore T100, binder captured by anti-human Fc. (In SPR one partner is held on a chip, and binding of the other changes the refractive index at the surface.)

The target of a further assay is T3, recombinant human TNF-α (human, UniProt P01375 77-233).
T3 construct: also called rhTNFα
The assay is described as follows: SPR Biacore T100, binder captured by anti-human Fc.

Assay [2] deals with T4, hu HIL6 Fc dimer (dimeric human HIL6/mouse IgG Fc fusion protein) (human).
T4 construct: also called human hyper-IL6 (IL6R-IL6-mIgG); dimeric HIL6
T4 chain: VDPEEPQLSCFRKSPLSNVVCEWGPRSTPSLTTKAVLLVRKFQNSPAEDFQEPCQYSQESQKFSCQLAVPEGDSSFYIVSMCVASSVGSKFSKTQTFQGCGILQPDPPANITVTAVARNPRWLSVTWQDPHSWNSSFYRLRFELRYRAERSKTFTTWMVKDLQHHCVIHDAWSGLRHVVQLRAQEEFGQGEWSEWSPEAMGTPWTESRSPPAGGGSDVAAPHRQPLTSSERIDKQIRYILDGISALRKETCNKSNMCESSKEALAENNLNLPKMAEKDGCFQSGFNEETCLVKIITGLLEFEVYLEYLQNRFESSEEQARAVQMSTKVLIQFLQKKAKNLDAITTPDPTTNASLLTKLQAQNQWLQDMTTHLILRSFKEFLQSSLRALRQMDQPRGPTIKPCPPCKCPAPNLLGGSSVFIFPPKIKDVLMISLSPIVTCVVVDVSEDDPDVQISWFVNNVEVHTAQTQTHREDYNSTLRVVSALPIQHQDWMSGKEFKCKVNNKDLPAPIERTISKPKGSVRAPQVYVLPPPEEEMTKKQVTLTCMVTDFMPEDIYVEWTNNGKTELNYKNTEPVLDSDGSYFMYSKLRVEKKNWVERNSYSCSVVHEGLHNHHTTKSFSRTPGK
Kind of assay: SPR Biacore T100, binder captured by anti-human Fc.

The target in a further assay is T5, sIL6R Fc dimer (UniProt P08887 20-358, limits assumed).
T5 construct: not shown: Fc
T5 sequence (looked up): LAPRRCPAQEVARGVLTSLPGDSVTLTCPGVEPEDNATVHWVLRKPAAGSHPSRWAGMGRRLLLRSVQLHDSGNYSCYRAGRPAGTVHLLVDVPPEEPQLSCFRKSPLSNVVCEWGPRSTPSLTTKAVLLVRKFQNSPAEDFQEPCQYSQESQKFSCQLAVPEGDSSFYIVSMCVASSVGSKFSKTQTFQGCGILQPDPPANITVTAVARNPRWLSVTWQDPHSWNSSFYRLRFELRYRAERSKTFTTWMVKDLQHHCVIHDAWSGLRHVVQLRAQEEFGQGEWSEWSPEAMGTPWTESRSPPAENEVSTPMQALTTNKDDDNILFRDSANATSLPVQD
Kind of assay: SPR Biacore T100, binder captured by anti-human Fc.

T3 sequence (P01375 77-233 limits assumed): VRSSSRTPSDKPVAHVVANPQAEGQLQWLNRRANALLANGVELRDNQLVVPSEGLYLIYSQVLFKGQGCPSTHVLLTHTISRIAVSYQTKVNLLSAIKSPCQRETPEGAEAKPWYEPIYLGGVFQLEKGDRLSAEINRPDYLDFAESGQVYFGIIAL

With B1, the binding result with TRU(XT6)-1042 is on record as “no binding (tested: 75 pM sIL-6R)”.

B2: TRU(XT6)-1002 (Fc fusion)
chain: LPAQVAFTPYAPEPGSTCRLREYYDQTAQMCCSKCSPGQHAKVFCTKTSDTVCDSCEDSTYTQLWNWVPECLSCGSRCSSDQVETQACTREQNRICTCRPGWYCALSKQEGCRLCAPLRKCRPGFGVARPGTETSDVVCKPCAPGTFSNTTSSTDICRPHQICNVVAIPGNASMDAVCTSTSPTRSMAPGAVHLPQPVSTRSQHTQPTPEPSTAPSTSFLLPMGPSPPAEGSTGDTGEPKSSDKTHTCPPCPAPEAAGAPSVFLFPPKPKDTLMISRTPEVTCVVVDVSHEDPEVKFNWYVDGVEVHNAKTKPREEQYNSTYRVVSVLTVLHQDWLNGKAYACAVSNKALPAPIEKTISKAKGQPREPQVYTLPPSRDELTKNQVSLTCLVKGFYPSDIAVEWESNGQPENNYKTTPPVLDSDGSFFLYSKLTVDKSRWQQGNVFSCSVMHEALHNHYTQKSLSLSPGQRHNNSSLNTRTQKARHSPNSEVQLLESGGGLVQPGGSLRLSCAASGFTFSFYQMHWVRQAPGKGLEWVSGIYPSGGYTKYADSVKGRFTISRDNSKNTLYLQMNSLRAEDTAVYYCARDLGYGSSWYYFDYWGQGTLVTVSSGGGGSGGGGSGGGGSQSALTQPASVSGSPGQSITISCSGTDSDVGGYNHVSWYQQHPGKAPKLIIYDVDHRPSGISNRFSGSKSGNTASLTISGLQAEDEADYYCSSYRSGSTYVFGTGTKVTVL
notes: The entry holds a signal peptide that the mature protein lacks
By Kd is commonly meant the constant that tells how readily two partners part at equilibrium. For B2, the binding result was “no binding (tested: 75 pM sIL-6R)” in assay [1] and “no binding (tested: 100 nM)” with sIL6R Fc dimer. Besides, the Kd in the assay with hu HIL6 AFH monomer amounted to 4.9 nM; with recombinant human TNF-α, 0.0031 nM; in assay [2] it was 61 nM.
